# Laboratory results: article PMC5680793
# Experiments:
# [1] = biological target: His-tagged mouse FcRn (mouse) (UniProt Q61559); experiment: BLI
# [2] = biological target: Mouse IgG2b (wild-type) (mouse); experiment: ITC
fold change of relative kon against wild-type IgG2a [1],Kd [2],Substance
2.7 fold,–,"Mouse IgG2a P307T, Q309L (antibody)"
–,2600 nM,Z34C peptide
